From the nanobody polyreactivity screen of Harvey et al. (2022)

Experiment: yeast display, Sf9 membrane polyspecificity reagent, FACS + sequencing; frameworks hold sequencing errors
Procedure, shortened: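 A nanobody's polyreactivity label depends on the gate it was sorted from. Yeast display cells were stained with 10% biotinylated, detergent-solubilized Sf9 membrane reagent for 1 hour at 4 °C, enriched on streptavidin microbeads and sorted by FACS. The low and high (top ~1%) gates were set on anti-HA fluorescence for expression and streptavidin fluorescence for reagent binding.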

Row | Sequence | polyreactivity (PSR sort gate)
1 | HVQLVESGGGLVQAGGSLRLSCAASGSTFTYYAMGWYRQAPGKERELVAAITGSDGRTYYADSVKGRFTISRDNAKKTVYLEMNSLKPEDTAVYYCATDVPIREIDEFGYWGQGTQVTVSS | low polyreactivity
2 | HVQLVESGGGLVQAGGSLRLSCAASGSTFYRNAMGWYREAPGKEWEFVADITLGGGSTYYADSVKGRFTISRDNAKNTVYLQMNSLKPEDTAVYYCAVDYWQLNYDYWGQGTQVTVSS | low polyreactivity
3 | HVQLVESGGGLVQAGGSLRLSCAASRRTFGWYAMGWYRQAPGKERELVAAISLSGGSTYYADSVKGRFTISRDNAKNTVYLQRNSLKPDVTAVYDCAAADYWLGYDYWGQGSQVTVSS | low polyreactivity
4 | HVQLVESGGGLVQAGGSLRLSCAASVFILSPNTMGWYRQAPGKERELVAAISSDVSTYADSVKGRFTISRDNAKNTVYLQMNSLKPEDTAVYYCNADDFGYASYEYWGQGTQVTVSS | low polyreactivity
5 | HVQLVESGGGLVQEGGSLRLSCAASGSILALYAMGWDRQAPGKERELVAAISSGDSTSYADSVKGRFTISRDNAKNTVYLQMNSLKPEDTAVYYCAADRPIYPYPGKGFRYDYWGQGTQVTVSS | low polyreactivity
6 | HVQLVESGVGLVQAGGSLRLSCEASGFIFIRYAMGWYRQAPGQERELVASISSGGSTYYADSVKGRFTISRDNAKNTVYFQMNSLKPEDTAVFYCAAVFSKGLEGDYWGQGTEVTVSS | high polyreactivity
7 | HVQQQESGGGLEQAGGSLRLSCAASGNISYSRNMGWYRQAPGKERELVAAIDRGAITYYADSVKGRFTISRDNAKNTVYLQIYSLKPEDTAVYYCAAVYHDRWDHRYWGQGTQVTVSR | high polyreactivity
8 | HVQQQESGGGLVQAGGSLRLSCAASGYISVFIGMGWYRQSPGKERELVASIAYGAITYYTDSVKGRFTMSRDYAKNTEYLQMNSLKPEDTAVYYCATRRYYRYYNFWYYYWGQGTQVTVSS | high polyreactivity
9 | HVRLQESGGGLVQAGGSLRQSCAACGAISPYYDMGWYRLAPGKEREFVASIAHGGTTYYADSVKGRFTTSRDNAKNTVYLQMKSMKTEDTAVYYCAVDYDVWHSHIYRGQGTQVTVSS | high polyreactivity
10 | IIQAGGSLRLSCAASGRTFSGYARGWYRQAPGKERELIADITSGGSTYYADSVKGRFTISRDNAKNTVYLQMNSLKPEDTAVYYCSRDDRLAGDYWGQGTQVTVSS | low polyreactivity
11 | KDQLVESGGGLVQAGGSLRLSSAASGIRFYVHSMGWYRQAPGKERELDASITSSGGSTYYADSVKGRFTISRDKATNSVYLQMNSLKPEDTAVYYCNKERWPVTYREYDYWGQGTQVTVSS | low polyreactivity
12 | KVHLVESGGGLVQAGGSLRLSCAASGRIFRYYAMGWYRHAPGKERELVAAIRYLGASTYYADSVKGRFTISRDNAKNTVYLQMNSLKPEDTAVYYCNRTPRSKGNYWGQGTLVTVSS | high polyreactivity
13 | KVQLVESGAGLVQAGGSLRLSCAASVSNFTSHAMGWSRQAPGKEREFVAAISVGGGITYYADSVKGRFTISRDHEKNTVYLQMNSLNPEDTAVYYCDADGEYPHSDDFEYWGQVTQVTVSS | low polyreactivity
14 | KVQLVESGGGLDQAGGSLRLSCAASGIIFAYNVMGRYRQAPGKERELVAAIRWGGGSTYADSVKGRFSISRDNAKNTVYLQMTRLKPEDTAVYYCNVERWWWSRTYCVKYDYWGQGTQVNVSS | high polyreactivity
15 | KVQLVESGGGLVQAGGRLRLSCAASGFIFVPYPMGWYRQAPGKERELVATITGRGDSTYYADSVKGRFTISRDNAMNTVYLQMNSLKTDDTAVYYCAVDPIRLWAYDYWGQGTQVNVSS | low polyreactivity
16 | KVQLVESGGGLVQAGGSHRLSSAASGSTFDGYVMGLYRPAPGKERELVDAISSTGTRTYYADSVKGRFTISRDNATNTFYLQINSMKPEDTAVYYCAAEIDYRYRTVSYYYWGQGSQVTVSS | low polyreactivity

Row | Sequence | polyreactivity (PSR sort gate)
17 | KVQLVESGGGLVQAGGSLLLSCAASGRTFTYNAIGWYRQARGTERELVAVITNSGGSTYYADSVKGRYTISRDNAKNTVYLQRNRLKPEDTAVYYCAADYFSRYWYRFYYWGQGTQVTVSS | high polyreactivity
18 | KVQLVESGGGLVQAGGSLRLSCAASGFTLGYYAMGWYRQEPGKEREMVAAITSGGGTNYADSVKGRFTISRDNAKNTVYLQMNSLKPEDSAVYYCAARARWIYGMYSWGQGTQVTLSS | low polyreactivity
19 | KVQLVESGGGLVQAGGSLRLSCAASGRIFGRNAMGGYRQAPGKERELVAAINVSSGGTYYADSVKGRFTISRDNAKNTVYLQMNSLKPEDTAVYFCAARARWAGLRYTRYYYWGQGTQVTVSS | high polyreactivity
20 | KVQLVESGGGLVQAGGSLRLSCAASGRILVYNVMGWYRQAPGKEMEFVAAITSRDTSTYYADSVKGRFTISRDNAKNPVYLQMNSLKPEDTAVYYCAVRVGARVRYYSWGQGTQVTVSS | high polyreactivity
21 | KVQLVESGGGLVQAGGSLRLSCAASGRTFPYYVMGWYRQAHGKERELVAAIDVGGGSTYYADSVKGRFTISRDNAKNTVYLQMNSLKPEVTAVYYCAAQVDYLAHYGYWGQGTQVTVSS | low polyreactivity
22 | KVQLVESGGGLVQAGGSLRLSCAASGYIFSYYAMGWYRQAPGKERELVAAITASGGRTYYADSVKGRFTISRDNAKNTVYLQMNSQKPEDTAVYYCARASGIILQGQLVRWYRYNYLGQGTQVTVSS | high polyreactivity
23 | KVQLVESGGGLVQAGGSLRLSCAHSGYIFGYYAMGCYRQAPGKERELVAAISSGGNTNYADSVKGRYTISRDNAKTTVYLQMNSLKPEDTAVNYCATRDRYKRIRYDYWGQGTQVTVSS | high polyreactivity
24 | KVQLVESGGGLVQAGGSLRLSCPASGFTFKSYTMAWSSQAPGKERELVAAISRRDGSTYYADSVKGRFPISRDNAKNTVYFQMNSLKPEDTAVYYCNAYTYGSEFDYWGQGTQVTVST | high polyreactivity
25 | KVQLVESGGGLVQARGSLRLSCAASGRIIRYYVMGWYRQAPGKERELVASISWRGTSTYYADSVKGRFTISRDNAKNTVYLQMNSLKPEDTAVYYCNAARPGKNYDSWGQGTQVTVSS | high polyreactivity
26 | KVQLVESGGRVVQAGGSLRLSCAASGSIFGYNDMGWYRPAPGKERELVATITWGGGRTRYADSVKGRFTISRDNAKKTVYLQMNSLKPEETAVYYCARDRGKITPYDYWGQGTQVTVSS | low polyreactivity
27 | KVQLVESGSGLVQAGGSHSISCAASGGTIACYVMGWYRPAPGKEREFVATISWSGTSTYYADSVKGRFTISRDNAKNTVDLLMYSLKPEDTAVFYCNKPGSSWPDFYSYNYWGLGTQVTVSS | low polyreactivity
28 | LGQLQESGGGLVQAGGSLRLSCAASGDIFDADIMGWYREAPGKEREHVASITDGGSTNYADSVKGRFTISRDNAKNTVYLPMNSLKPENTAVLYCAAIAYPDLPTYFDYDSDYFDWGQGTQVTVSS | low polyreactivity
29 | LQLVESGGGLVQAGGSLRLTSAASGSTFHRYAMGWYRQSPGKERELVAAISSRGGSTYYADSVKGRFTISRDNAKYTVYLQMNSLKPEDTAVYYCAVYGGRSGVPFDSMDYWGQGTQVTVTS | high polyreactivity
30 | LVHLQESGGGLVQAGGSLRLSCAASGTISPAGYMGWYRPAPGKERELVASINVGGSTNYADSVKGRFTISRDNAKNTVYLQLNCLKPEVNAVYYCAVWGRYRLQLSYWGQGTQVTVSS | low polyreactivity
31 | LVLLVESGGGLVQAGGSLRLSCAASGFSFACYGMGWYRQAPGNDRELVAALSWSGGRTYYADSVTGRFTISRDNAKNTVYLQMNSLKPEDTAVDYCYAYWNPASKYDFWGQGTQVTVTS | high polyreactivity
32 | LVQAGGSLRLSCAASVNTSGKNAMGWYRQAPGKERELVAAISSAGSTNYADSVKGRFTISRDNAKNTVYLQMNSLKPEDTAVYYCNAVRRLATVKTYRFNYWGQGTQVTVSS | low polyreactivity
